Reference: US20260167712A1, “INHIBITORY ANTIBODIES AGAINST GLUT1” (ICOSAGEN CELL FACTORY OÜ, priority 2022, published 2026)
“Also recorded” adds a separate entry of the source.

Key:
[1] = system: PC3 prostate cancer cell line; assay: Cell proliferation inhibition assay (Incucyte), PC3; format: cell-based; settings: co-treatment with IACS-010759, compared to single agents, FIG. 11A
Protocol: (§1) Incucyte S3 Live cell analysis instrument and Cell-by-Cell analysis software module (Sartorius) were used to evaluate the effect of anti-SLC2A1 antibodies on cancer cell proliferation label-free (FIGS. 5-11). MCF7, PC3 or PANC1 or MIAPACA2 cells were plated on flat bottom tissue culture 96-well plate in […] medium (Ximbio) supplemented with 2.5% FBS. Cells were incubated overnight and 0.02 nM to 13 μM anti-SLC2A1 antibodies, anti-HEL isotype control, PBS or BAY-876 were added to the cells alone or in combination with metformin (CaymanChem), phenformin (Sigma Aldrich) or IACS-010759 (CaymanChem). Cell confluence or object count was measured for 24 to 96 hours with Incucyte S3 and normalized to timepoint 0 h or 4h. anti-SLC2A1 antibodies inhibit cancer cell proliferation alone and especially in combination with complex-I inhibitors metformin, phenformin and IACS-010759. Exemplary antibodies 1G2 #9, 2A2 #12, 2E5 #22, 5G5 #30, 6F12 #33, 7C3 #39 and R14 #54 were used in proliferation assays.

[2] = system: MIAPACA2 pancreatic cancer cell line; assay: Cell proliferation inhibition assay (Incucyte), MIAPACA2; format: cell-based; settings: co-treatment with IACS-010759, compared to single agents, FIG. 11C
Protocol: as §1

[3] = system: PANC1 pancreatic cancer cell line; assay: Cell proliferation inhibition assay (Incucyte), PANC1; format: cell-based; settings: co-treatment with IACS-010759, compared to single agents, FIG. 11B
Protocol: as §1

[4] = Body weight in MiaPaca2 xenograft study; format: in vivo, mice; settings: during treatments, FIG. 12B
From the text: Hsd:Athymic Nude-Foxn1^nu mice (10 per group) were inoculated with 5e6 MiaPaca2 cells/mouse subcutaneously.

Molecule | PC3 cell growth in combination with IACS-010759 [1] | MIAPACA2 cell growth in combination with IACS-010759 [2] | PANC1 cell growth in combination with IACS-010759 [3] | body weight [4]
2E5 #22 (antibody, V domains shown) VH: AVTLDESGGGLQTPGGALSLVCKASGFTFSTKGMGWVRQTPGKGLEWVAGISSMRRYTYYAPAVKGRATISRDNGQSTVRLQLSSLRAEDSGTYYCARDATYCSWTTSTCGWSGGTIDAWGHGTEVIVSS VL: ALTQPSSVSANLGGTVKITCSGGSGNYGWYQQKSPGSVPVTVIYSNDKRPSDIPSRFSGSGSGSTATLTITGVQVEDEAVYFCGSRDSSYVGLFGAGTTLTVL | strong synergistic growth inhibition |  |  | 
6F12 #33 (antibody, V domains shown) VH: AVTLDESGGGLQTPGGALSLVCKASGFTFSDHAIFWVRQAPDKGLEFVAAISSGTGSWTAYATVVKGRATISRDNGQSTVRLQLNNLRAADTATYYCAKGAGSACCYAGSIDAWGHGTEVIVSS VL: ALTQPSSVSANPGETVKITCSGGSSSSYYGWYQQKSPGSAPVTLIYYNDKRPSDIPSRFSGSKSGSTATLTITGVQVEDEAVYYCGTGDGSFAIFGAGTTLTVL |  | dramatic growth reduction | dramatic growth reduction | No changes; also recorded: remained unchanged
